In PMC6139311 one finds binding signal and Kd data, which are given here for 1 substance.

Series [1] relates to Lrp;MBP-RctB (Escherichia coli;Vibrio cholerae). Kind of series: EMSA. The settings on record: scale: fold higher RctB affinity than to naked crtS.
A further series concerns Lrp (Escherichia coli). Kind of series: EMSA. (In general: A gel shift assay detects complexes by their altered migration in electrophoresis.)

Usually Kd stands for the constant that tells how readily two partners part at equilibrium.

In series [1], “crtS (153 bp with ~100 bp lambda flanks)” displayed a binding signal of 10. The Kd in the series with Lrp (Escherichia coli) came to 5.5 nM.
